Assay results: US20160200813A1
Each block holds one binder with its values, some of them ahead of it.

What was measured:
[1] = biological target: Mouse LRP-8 expressed on HEK293 cells (mouse) (UniProt Q924X6); assay: cell-based MSD binding assay on 293H-mLRP8 cells; curve label 11H1-15
[2] = biological target: Mouse LRP-8 expressed on HEK293 cells (mouse) (UniProt Q924X6); assay: cell-based MSD binding assay on 293H-mLRP8 cells; curve label 11H1-18
[3] = biological target: Mouse LRP-8 expressed on HEK293 cells (mouse) (UniProt Q924X6); assay: cell-based MSD binding assay on 293H-mLRP8 cells; curve label 11H1-19
[4] = biological target: Mouse LRP-8 expressed on HEK293 cells (mouse) (UniProt Q924X6); assay: cell-based MSD binding assay on 293H-mLRP8 cells; curve label 11H1-16, no plateau up to about 600 nM
[5] = biological target: Mouse LRP-8 expressed on HEK293 cells (mouse) (UniProt Q924X6); assay: cell-based MSD binding assay on 293H-mLRP8 cells; curve label 11H1-17
[6] = biological target: Mouse LRP-8 expressed on HEK293 cells (mouse) (UniProt Q924X6); assay: cell-based MSD binding assay on 293H-mLRP8 cells; curve label 11H1-21, no plateau up to about 600 nM
[7] = biological target: Mouse LRP-8 expressed on HEK293 cells (mouse) (UniProt Q924X6); assay: cell-based MSD binding assay on 293H-mLRP8 cells; curve label 11H1-20
[8] = biological target: Mouse LRP-8 expressed on HEK293 cells (mouse) (UniProt Q924X6); assay: cell-based MSD, 1 to 5, mouse-LRP8-HEK293
[9] = biological target: Mouse LRP-8 expressed on HEK293 cells (mouse) (UniProt Q924X6); assay: cell-based MSD, 1 to 25, mouse-LRP8-HEK293
[10] = biological target: Mouse LRP-8 expressed on HEK293 cells (mouse) (UniProt Q924X6); assay: cell-based MSD, 1 to 125, mouse-LRP8-HEK293
[11] = biological target: Mouse LRP-8 expressed on HEK293 cells (mouse) (UniProt Q924X6); assay: cell-based binding on MOUSE LRP8-HEK293, supernatant 1:5
[12] = biological target: Mouse LRP-8 expressed on HEK293 cells (mouse) (UniProt Q924X6); assay: cell-based binding on MOUSE LRP8-HEK293, supernatant 1:25
[13] = biological target: Mouse LRP-8 expressed on HEK293 cells (mouse) (UniProt Q924X6); assay: cell-based binding on MOUSE LRP8-HEK293, supernatant 1:125
[14] = biological target: Mouse LRP-8 expressed on HEK293 cells (mouse) (UniProt Q924X6); assay: cell-based binding assay, mLRP8
[15] = biological target: Mouse LRP-8 expressed on HEK293 cells (mouse) (UniProt Q924X6); assay: cell-based MSD-ECL binding on cells overexpressing mouse LRP-8 variant 1 (mLRP8 assay); curve without plateau up to 10000 ng/ml
[16] = biological target: Mouse LRP-8 expressed on HEK293 cells (mouse) (UniProt Q924X6); assay: fit of the FACS titration of FIG. 12A on mLRP8-transfected HEK293 cells; the column head prints EC50 only, nM is from legend paragraph 78 and the axis of FIG. 12A
[17] = biological target: Mouse LRP-8 expressed on HEK293 cells (mouse) (UniProt Q924X6); assay: FACS, mouse LRP8 cells
[18] = biological target: Mouse LRP-8 expressed on HEK293 cells (mouse) (UniProt Q924X6); assay: mLRP8 cell binding; chimeric VL / chimeric VH

EC50 [1]: 3.2 nM
B1: LRP8-ML199.11H1.5B2 VH1/VL1A.15 (antibody, V domains shown)
VH: EVQLVESGGGLVKPGGSLRLSCAASRFTFSNYGMSWVRQAPGKGLEWVSTISSGGRYTYYPDHVKGRFTISRDNAKNSLYLQMNSLRAEDTAVYYCARDYLYAMDYWGQGTTVTVSS
VL: DVVMTQSPLSLPVTPGEPASISCRSSQSLVYSNENTYLHWYLQKPGQSPQVLMYKVSNRFSGVPDRFSGSGSGTDFTLKISRVEAEDVGVYFCSQSTHVPLTFGQGTKLEIK

EC50 [2]: 0.8 nM
B2: LRP8-ML199.11H1.5B2 VH1/VL1A.18 (antibody, V domains shown)
VH: EVQLVESGGGLVKPGGSLRLSCAASRFTFSNYGMSWVRQAPGKGLEWVSTISSGGRYTYYPDHVKGRFTISRDNAKNSLYLQMNSLRAEDTAVYYCARDYLYAMDYWGQGTTVTVSS
VL: DVVMTQSPLSLPVTPGEPASISCRSSQSLVYSNKNTYLHWYLQKPGQSPQVLMYKVSNRFSGVPDRFSGSGSGTDFTLKISRVEAEDVGVYFCSQSTHVPLTFGQGTKLEIK

EC50 [3]: 24 nM
B3: LRP8-ML199.11H1.5B2 VH1/VL1A.19 (antibody, V domains shown)
VH: EVQLVESGGGLVKPGGSLRLSCAASRFTFSNYGMSWVRQAPGKGLEWVSTISSGGRYTYYPDHVKGRFTISRDNAKNSLYLQMNSLRAEDTAVYYCARDYLYAMDYWGQGTTVTVSS
VL: DVVMTQSPLSLPVTPGEPASISCRSSQSLVYSRGNTYLHWYLQKPGQSPQVLMYKVSNRFSGVPDRFSGSGSGTDFTLKISRVEAEDVGVYFCSQSTHVPLTFGQGTKLEIK

EC50 [4]: 625 nM
B4: LRP8-ML199.11H1.5B2 VH1/VL1A.16 (antibody, V domains shown)
VH: EVQLVESGGGLVKPGGSLRLSCAASRFTFSNYGMSWVRQAPGKGLEWVSTISSGGRYTYYPDHVKGRFTISRDNAKNSLYLQMNSLRAEDTAVYYCARDYLYAMDYWGQGTTVTVSS
VL: DVVMTQSPLSLPVTPGEPASISCRSSQSLVYSTGNTYLHWYLQKPGQSPQVLMYKVSNRFSGVPDRFSGSGSGTDFTLKISRVEAEDVGVYFCSQSTHVPLTFGQGTKLEIK

EC50 [5]: 0.7 nM
B5: LRP8-ML199.11H1.5B2 VH1/VL1A.17 (antibody, V domains shown)
VH: EVQLVESGGGLVKPGGSLRLSCAASRFTFSNYGMSWVRQAPGKGLEWVSTISSGGRYTYYPDHVKGRFTISRDNAKNSLYLQMNSLRAEDTAVYYCARDYLYAMDYWGQGTTVTVSS
VL: DVVMTQSPLSLPVTPGEPASISCRSSQSLVYSNLNTYLHWYLQKPGQSPQVLMYKVSNRFSGVPDRFSGSGSGTDFTLKISRVEAEDVGVYFCSQSTHVPLTFGQGTKLEIK

EC50 [6]: 249 nM
B6: LRP8-ML199.11H1.5B2 VH1/VL1A.21 (antibody, V domains shown)
VH: EVQLVESGGGLVKPGGSLRLSCAASRFTFSNYGMSWVRQAPGKGLEWVSTISSGGRYTYYPDHVKGRFTISRDNAKNSLYLQMNSLRAEDTAVYYCARDYLYAMDYWGQGTTVTVSS
VL: DVVMTQSPLSLPVTPGEPASISCRSSQSLVYSPGNTYLHWYLQKPGQSPQVLMYKVSNRFSGVPDRFSGSGSGTDFTLKISRVEAEDVGVYFCSQSTHVPLTFGQGTKLEIK

EC50 [7]: 21 nM
B7: LRP8-ML199.11H1.5B2 VH1/VL1A.20 (antibody, V domains shown)
VH: EVQLVESGGGLVKPGGSLRLSCAASRFTFSNYGMSWVRQAPGKGLEWVSTISSGGRYTYYPDHVKGRFTISRDNAKNSLYLQMNSLRAEDTAVYYCARDYLYAMDYWGQGTTVTVSS
VL: DVVMTQSPLSLPVTPGEPASISCRSSQSLVYSWGNTYLHWYLQKPGQSPQVLMYKVSNRFSGVPDRFSGSGSGTDFTLKISRVEAEDVGVYFCSQSTHVPLTFGQGTKLEIK

fold over IgG control [8]: 3.5 fold
fold over IgG control [9]: 6 fold
fold over IgG control [10]: 5.3 fold
fold over isotype control [11]: 27.4 fold
fold over isotype control [12]: 21.6 fold
fold over isotype control [13]: 13.1 fold
B8: BGK-7F7 (GENOVAC candidate clone of Table 17) (antibody, V domains shown)
VH: QVTLKESGPGILQPSQTLSLTCTFSGFSLSTYGLGVGWIRQPSGKGLEWLANIWWDDAKYYNPSLKNRLTISKDTSNNQAFLKIPNVDTADTARYYCARTTKPYYFDYWGQGVMVTVSS
VL: HFVLAQPNSVSTNLGSTVKLSCKRSTANIGSNYVNWYQQHEGRSPTTLIYRDDRRPDGVPDRFSGSIDRSSNSALLTINNVQTEDEADYFCQSYSSGINIFGGGTKLTVL

EC50 [14]: 22 nM
EC50 [15]: 4.4 µg/mL
EC50 [16]: 2.61 nM
B9: anti-LRP-8 BGK-2C8.8C antibody (antibody, V domains shown)
VH: EVQLVESGGGLVQPGRSLKLSCAASGFTVSDYYMAWVRQAPKKGLEWVASISYEGSSTYYGDSVKGRFTISRDNAKSILYLQMNSLRSEDTATYYCARPLRYYGYNYRFAYWGQGTLVTVSS
VL: DIQMSQSPPVLSASVGDRVTLSCKASQNIHKNLDWYQQKHGEAPKLLIYYTDNLQTGIPSRFSGSGSGTDYTLTISSLQPEDVATYYCYQYNSGPTFGAGTKLELQ

FACS (ratio +/-) [17]: 283
EC50 [14]: 0.32 nM
EC50 [18]: 0.95 nM
B10: chimeric anti-LRP-8 ML199.11H1.5B2 antibody [mu/hu IgG1/k] LALA (antibody, V domains shown)
VH: EVQLVESGGDLVKPGGSLKLSCAASRFTFSNYGMSWVRQTPDKRLEWVATISSGGRYTYYPDSVKGRFTISRDNAKNTLYLQMSSLRSEDTAMYYCARDYLYAMDYWGQGTSVTVSS
VL: DVVMTQTPLSLPVSLGDQASISCRSSQSLVYSNGNTYLHWYLQKPGQSPKVLMYKVSNRFSGVSDRFSGSGSGTDFTLKISRVEAEDLGVYFCSQSTHVPLTFGAGTKLELK
